In patent US20250026849A1 (ARCELLX, published 2025):

Target: T1, CD123 (Homo sapiens (Human), UniProt P26951 19-305, limits assumed)
T1 construct: The CD123 construct used in the ELISA is not described; also called CD123-Signal
T1 sequence: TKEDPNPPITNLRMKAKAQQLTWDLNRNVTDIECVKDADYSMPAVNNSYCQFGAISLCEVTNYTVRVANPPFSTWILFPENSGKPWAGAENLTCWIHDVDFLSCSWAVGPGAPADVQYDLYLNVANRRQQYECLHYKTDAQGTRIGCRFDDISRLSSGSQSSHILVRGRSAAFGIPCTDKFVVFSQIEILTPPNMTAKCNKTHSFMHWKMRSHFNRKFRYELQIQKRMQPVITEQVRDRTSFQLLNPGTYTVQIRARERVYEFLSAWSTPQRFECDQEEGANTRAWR
Assay: ELISA
Set-up: unit not given here

B1: D domain of SEQ ID NO: 461 (designed binder)
chain: MGSWFEFYDRLDAIYMRLIALGGSEAELAAFEKEIAAFESELQAYKGKGNPEVEVLRRYAANIRAELQAYRHN
B1 was tested, and the ELISA_avg was 13.6.

B2: D domain of SEQ ID NO: 462 (designed binder)
chain: MGSWFEFYMRLDAIYDRLTALGGSEAELAAFEKEIAAFESELQAYKGKGNPEVERLRTFAANIRKELQAYRHN
Binder B2 has an ELISA_avg of 13.1.

B3: D domain of SEQ ID NO: 463 (designed binder)
chain: MGSWYEFDYRLDAIYDRLAALGGSEAELAAFEKEIAAFESELQAYKGKGNPEVERLRKWAANIREELQAYRHN
With B3 the ELISA_avg was 24.9.

B4: D domain of SEQ ID NO: 464 (designed binder)
chain: MGSWSEFYLRLDAIYDRLDALGGSEAELAAFEKEIAAFESELQAYKGKGNPEVEWLRKTAANIREELQAYRHN
Work on B4 yielded an ELISA_avg of 15.7.

B5: D domain of SEQ ID NO: 360 (designed binder)
chain: MGSWTEFVWRLEAIWDRLDALGGSEAELAAFEKEIAAFESELQAYKGKGNPEVEVLREDAAVIRHFLQAYRHN
B5 gave an ELISA_avg of 3.6.

B6: D domain of SEQ ID NO: 366 (designed binder)
chain: MGSWEEFAQRLYAIEWRLYALGGSEAELAAFEKEIAAFESELQAYKGKGNPEVEVLRYVAAQIRYHLQAYRHN
Binder B6 has an ELISA_avg of 16.9.

B7: D domain of SEQ ID NO: 367 (designed binder)
chain: MGSWDEFAWRLDVIFARLGALGGSEAELAAFEKEIAAFESELQAYKGKGNPEVEELRKNAAQIRDGLQAYRHN
Binder B7 has an ELISA_avg of 4.6.

B8: D domain of SEQ ID NO: 368 (designed binder)
chain: MGSWDEFYYRLEAIEMRLGALGGSEAELAAFEKEIAAFESELQAYKGKGNPEVEELRHYAAQIRHMLQAYRHN
Work on B8 yielded an ELISA_avg of 7.2.

B9: D domain of SEQ ID NO: 369 (designed binder)
chain: MGSWEEFYDRLEAIYNRLGALGGSEAELAAFEKEIAAFESELQAYKGKGNPEVEVLREYAADIREMLQAYRHN
Binder B9 has an ELISA_avg of 18.6.

B10: D domain of SEQ ID NO: 385 (designed binder)
chain: MGSWDEFGRRLYAIEWRLYALGGSEAELAAFEKEIAAFESELQAYKGKGNPEVEKLREIAAVIRSNLQAYRHN
B10 gave an ELISA_avg of 5.8.

B11: D domain of SEQ ID NO: 394 (designed binder)
chain: MGSWDEFEQRLIAIEERLFALGGSEAELAAFEKEIAAFESELQAYKGKGNPEVEWLREEAAVIRKYLQAYRHN
B11 showed an ELISA_avg of 5.9.

B12: D domain of SEQ ID NO: 395 (designed binder)
chain: MGSWVEFDQRLGAIWDRLVALGGSEAELAAFEKEIAAFESELQAYKGKGNPEVEHLRQGAAVIRDDLQAYRHN
In the case of B12, the ELISA_avg is reported as 5.3.

B13: D domain of SEQ ID NO: 398 (designed binder)
chain: MGSWHEFDQRLWAIEERLWALGGSEAELAAFEKEIAAFESELQAYKGKGNPEVETLRLYAALIRHDLQAYRHN
B13 was tested, and the ELISA_avg was 3.3.

B14: D domain of SEQ ID NO: 399 (designed binder)
chain: MGSWVEFWDRLDAIEGRLWALGGSEAELAAFEKEIAAFESELQAYKGKGNPEVEDLRWLAAEIRADLQAYRHN
Binder B14 has an ELISA_avg of 3.5.

B15: D domain of SEQ ID NO: 406 (designed binder)
chain: MGSWFEFNYRLGAIEDRLWALGGSEAELAAFEKEIAAFESELQAYKGKGNPEVEMLRQIAAEIREFLQAYRHN
B15 gave an ELISA_avg of 6.9.

B16: D domain of SEQ ID NO: 407 (designed binder)
chain: MGSWEEFFTRLDAINERLEALGGSEAELAAFEKEIAAFESELQAYKGKGNPEVEMLRYEAAEIRHMLQAYRHN
Binder B16 has an ELISA_avg of 3.9.

B17: D domain of SEQ ID NO: 408 (designed binder)
chain: MGSWYEFSNRLDAIGERLWALGGSEAELAAFEKEIAAFESELQAYKGKGNPEVEILRHQAAEIRWFLQAYRHN
B17 was tested, and the ELISA_avg was 3.9.

B18: D domain of SEQ ID NO: 409 (designed binder)
chain: MGSWYEFWGRLDAIEERLWALGGSEAELAAFEKEIAAFESELQAYKGRGNPEVEMLREDAAEIRGQLQAYRHN
B18 gave an ELISA_avg of 5.4.

B19: D domain of SEQ ID NO: 410 (designed binder)
chain: MGSWVEFWDRLWAIDYRLFALGGSEAELAAFEKEIAAFESELQAYKGKGNPEVEALRDEAAWIREELQAYRHN
B19 was tested, and the ELISA_avg was 3.6.

B20: D domain of SEQ ID NO: 411 (designed binder)
chain: MGSWVEFVDRLWAIDERLDALGGSEAELAAFEKEIAAFESELQAYKGKGNPEVEFLRTWAAWIREDLQAYRHN
B20 gave an ELISA_avg of 3.2.

B21: D domain of SEQ ID NO: 417 (designed binder)
chain: MGSWDEFEERLFAIDERLWALGGSEAELAAFEKEIAAFESELQAYKGKGNPEVEALRYLAADIREELQAYRHN
Work on B21 yielded an ELISA_avg of 5.

B22: D domain of SEQ ID NO: 418 (designed binder)
chain: MGSWEEFWERLDAIDTRLWALGGSEAELAAFEKEIAAFESELQAYKGKGNPEVEVLRNDAADIREPLQAYRHN
In the case of B22, the ELISA_avg is reported as 6.8.

B23: D domain of SEQ ID NO: 419 (designed binder)
chain: MGSWMEFWERLEAIDMRLWALGGSEAELAAFEKEIAAFESELQAYKGKGNPEVEYLRDDAAVIRDDLQAYRHN
Binder B23 has an ELISA_avg of 4.2.

B24: D domain of SEQ ID NO: 420 (designed binder)
chain: MGSWLEFMWRLDAIDERLWALGGSEAELAAFEKEIAAFESELQAYKGKGNPEVELLREMAAAIRDDLQAYRHN
B24 was tested, and the ELISA_avg was 5.1.

B25: D domain of SEQ ID NO: 421 (designed binder)
chain: MGSWTEFYNRLDAIDQRLWALGGSEAELAAFEKEIAAFESELQAYKGKGNPEVEMLREYAADIRTDLQAYRHN
In the case of B25, the ELISA_avg is reported as 3.3.

B26: D domain of SEQ ID NO: 422 (designed binder)
chain: MGSWWEFIWRLEAIEQRLWALGGSEAELAAFEKEIAAFESELQAYKGKGNPEVEVLRSRAADIRTDLQAYRHN
Work on B26 yielded an ELISA_avg of 4.

B27: D domain of SEQ ID NO: 424 (designed binder)
chain: MGSWSEFEDRLWAIDQRLFALGGSEAELAAFEKEIAAFESELQAYKGKGNPEVEWLRAYAADIRWELQAYRHN
Work on B27 yielded an ELISA_avg of 4.2.

B28: D domain of SEQ ID NO: 423 (designed binder)
chain: MGSWSEFYDRLWAIEERLFALGGSEAELAAFEKEIAAFESELQAYKGKGNPEVEYLRYYAAEIREELQAYRHN
Work on B28 yielded an ELISA_avg of 17.

B29: D domain of SEQ ID NO: 427 (designed binder)
chain: MGSWWEFENRLWAIEERLEALGGSEAELAAFEKEIAAFESELQAYKGKGNPEVEMLRNYAAEIRWELQAYRHN
B29 gave an ELISA_avg of 5.6.

B30: D domain of SEQ ID NO: 428 (designed binder)
chain: MGSWVEFEERLWAIDERLGALGGSEAELAAFEKEIAAFESELQAYKGKGNPEVEWLRDWAADIRWWLQAYRHN
In the case of B30, the ELISA_avg is reported as 4.1.

B31: D domain of SEQ ID NO: 429 (designed binder)
chain: MGSWVEFEERLEAIEERLFALGGSEAELAAFEKEIAAFESELQAYKGKGNPEVEWLRDDAANIRHWLQAYRHN
B31 was tested, and the ELISA_avg was 3.8.

B32: D domain of SEQ ID NO: 425 (designed binder)
chain: MGSWTEFWERLNAIDERLFALGGSEAELAAFEKEIAAFESELQAYKGKGNPEVEWLRLYAAEIRSELQAYRHN
Work on B32 yielded an ELISA_avg of 4.
